Data as given in patent US6893843B2, “Nucleic acids” (priority 1990, dated 2005).
Like-named read-outs stand apart in the source and are kept apart here. No end group written: not given here.

How the values were obtained:
[1] = biological target: T1, Proteinase 3 (Homo sapiens, UniProt P24158); assay: Inhibition of proteinase 3 (elastin-FITC hydrolysis); format: biochemical; details: 37° C., 4 hours, pH 8.5, read-out: IC50 against proteinase 3
T1 construct: Proteinase 3 was purified from human polymorphonuclear leukocytes using the method of Ludemann; from tissue; host or cells: human polymorphonuclear leukocytes
T1 sequence (P24158 28-256): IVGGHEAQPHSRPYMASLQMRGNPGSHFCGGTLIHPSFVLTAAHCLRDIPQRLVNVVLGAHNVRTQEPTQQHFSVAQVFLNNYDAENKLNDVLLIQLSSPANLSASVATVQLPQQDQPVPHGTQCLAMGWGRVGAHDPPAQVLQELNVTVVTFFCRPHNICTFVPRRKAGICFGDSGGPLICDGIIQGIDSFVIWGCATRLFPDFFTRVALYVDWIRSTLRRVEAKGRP
Experimental: Proteinase 3 was purified from human polymorphonuclear leukocytes using the method of Ludemann reported in J Exp Med 171, 357-362, 1990. The absence of human leukocyte elastase and cathespin G was confirmed by the lack of activity of the proteinase 3 preparation with the substrates methoxy-succinyl-ala-ala-pro-val-p-nitroanilide (AAPVpNA), and succinyl-ala-ala-phe-p-nitroanilide respectively according to the method of Nakajima (7).
The elastinolytic activity was determined by hydrolysis of bovine ligamentum nuchae elastin-FITC (Elastin Products Corporation, USA).
The proteinase 3 preparation (1 μl) was preincubated at 37° C. for 30 minutes with the elastase inhibitor of formula I (0-1 μg) in carbonate buffer (50 μl, 0.1M), NaN3 (0.02%), Brij 35 (0.01%), pH8,5. Elastin-FITC (1 mg) in carbonate buffer (100 μl, 0.1M), NaN3 (0.02%), Brij 35 (0.01%), pH8.5. The mixture was incubated at 37° C. with gentle agitation for 4 hours, and then centrifuged at 6000×g. The supernatants were diluted 1:20 and the fluorescence of the solubilised elastin-FITC was determined using a Perkin Elmer LS 50 microtiterplate reader at Ex489 nm, Em 513 nm. Fluorescence was corrected by enzyme free controls and inhibition expressed in % of inhibitor free controls.

[2] = Isoelectric focussing; format: physicochemical; details: silver stain and enzymatic detection in gel slices
Experimental: Isoelectric focussing was performed by using Servalyt Precoates pH 3-10 and Test-Mix 9 (Serva). Prefocussing was for 30 minutes at 3 watts, and silver stain (Sigma) or Comassie blue R stain was used according to Serva instructions. In parallel, the precoates were sliced and eluted to localise inhibitory active peptides. Approximately 1 mm slices were eluted with 100 μl acetonitrile. The eluates were allowed to dry and were resolved in 100 μl of buffer (0.1M HEPES, 0.5M NaCl, 1% BSA, pH 7.5) containing 20 ng HLE. After 30 minutes incubation the remaining HLE activity was determined.

[3] = biological target: T2, human cathepsin G (Homo sapiens, UniProt P08311); assay: Inhibition of cathepsin G (AAPFpNA substrate); format: biochemical; details: substrate 0.5 mM AAPFpNA; inhibitor up to 1 μg/ml (threefold molar); n.i. = no inhibition
T2 sequence (P08311 21-255): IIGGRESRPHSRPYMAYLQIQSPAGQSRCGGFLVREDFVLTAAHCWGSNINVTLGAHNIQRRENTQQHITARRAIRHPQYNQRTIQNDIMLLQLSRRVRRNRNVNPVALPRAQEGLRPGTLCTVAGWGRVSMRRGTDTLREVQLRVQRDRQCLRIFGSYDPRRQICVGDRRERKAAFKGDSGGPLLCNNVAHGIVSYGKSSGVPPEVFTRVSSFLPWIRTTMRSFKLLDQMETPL
Experimental: (§1) The activities of cathepsin G and Alpha-chymotrypsin were determined according to the method of Nakajima et al (9) using an analogue to HLE—succinyl-alanyl-alanyl-prolyl-phenylalanyl-p-nitroanilide (AAPFpNA, Sigma). For inhibition experiments, the highest concentration of the inhibitor was 1 μg/ml, representing a threefold molar concentration as compared to cathepsin G and Alpha-chymotrypsin.

[4] = Acid stability; format: physicochemical
[5] = biological target: Alpha-chymotrypsin (Bos taurus, UniProt P00766); assay: Inhibition of Alpha-chymotrypsin (AAPFpNA substrate); format: biochemical
Experimental: as §1

[6] = biological target: plasmin (Homo sapiens, UniProt P00747); assay: Inhibition of plasmin (TGPLpNA substrate); format: biochemical
plasmin, sequence (P00747 581-810 limits assumed, species assumed): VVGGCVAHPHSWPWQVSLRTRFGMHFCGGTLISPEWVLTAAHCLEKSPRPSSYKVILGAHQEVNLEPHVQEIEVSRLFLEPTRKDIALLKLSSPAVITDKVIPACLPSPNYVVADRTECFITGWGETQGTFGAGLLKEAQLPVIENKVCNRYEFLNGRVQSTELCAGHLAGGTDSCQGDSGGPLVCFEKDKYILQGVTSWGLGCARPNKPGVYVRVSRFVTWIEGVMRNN
plasmin, sequence (P00747 97-580 partner limits assumed, species assumed): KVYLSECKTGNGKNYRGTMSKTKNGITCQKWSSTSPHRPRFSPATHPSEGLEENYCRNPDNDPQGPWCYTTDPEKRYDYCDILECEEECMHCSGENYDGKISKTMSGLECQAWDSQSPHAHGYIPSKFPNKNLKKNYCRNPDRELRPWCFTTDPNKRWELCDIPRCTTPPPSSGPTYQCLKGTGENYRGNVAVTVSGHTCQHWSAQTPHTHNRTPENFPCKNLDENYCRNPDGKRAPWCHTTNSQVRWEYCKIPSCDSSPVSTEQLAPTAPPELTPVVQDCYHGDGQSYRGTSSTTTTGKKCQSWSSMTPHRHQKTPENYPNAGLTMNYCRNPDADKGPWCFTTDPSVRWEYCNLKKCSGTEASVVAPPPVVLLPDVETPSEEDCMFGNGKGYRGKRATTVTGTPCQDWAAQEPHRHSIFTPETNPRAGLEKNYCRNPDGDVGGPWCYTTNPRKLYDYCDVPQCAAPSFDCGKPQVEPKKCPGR
Experimental: (§2) 100 μl inhibitor (1 μg/ml) and 100 μl trypsin (1 μg/ml) or plasmin (1 μg/ml) as appropriate were incubated for 30 minutes before adding the substrate, 0.1 mM tosyl-glycyl-prolyl-lysin-pNA (Boehringer Mannheim, FRG) in 0.05M HEPES, 0.12M NaCl, pH7.5.

[7] = biological target: porcine pancreatic elastase (Sus scrofa, UniProt P00772); assay: Inhibition of porcine pancreatic elastase (AAPV-AFC fluorogenic substrate); format: biochemical
porcine pancreatic elastase, sequence (P00772 27-266): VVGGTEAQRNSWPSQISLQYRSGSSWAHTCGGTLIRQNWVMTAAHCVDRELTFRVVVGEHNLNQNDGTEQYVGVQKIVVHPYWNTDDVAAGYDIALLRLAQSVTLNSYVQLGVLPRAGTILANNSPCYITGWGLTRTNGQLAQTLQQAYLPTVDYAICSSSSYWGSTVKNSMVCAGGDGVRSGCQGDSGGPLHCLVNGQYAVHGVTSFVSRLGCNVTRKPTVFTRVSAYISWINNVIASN
Experimental: The activity of porcine pancreatic elastase (E.C. 3.4.21.36) was determined using the flourogenic substrate methoxy-succinyl-alanyl-alanyl-prolyl-valyl-trifluoromethylcoumarine (AAPV-AFC, Bachem, Bubendorf, Switzerland).
Elastase (100 μl) and inhibitor (100 μl) were pre-incubated for 30 minutes. A solution of substrate (1.8 ml of a 0.1 mM solution) was then added. Flourescence, Ex 400 Em 505, was followed and the %-inhbition was calculated from the initial activity of samples and controls. The dissociation constant (Ki) was determined according to the method of Green and Work (8).

[8] = test system: trypsin; assay: Inhibition of trypsin (TGPLpNA substrate); format: biochemical
Experimental: as §2

[9] = biological target: T3, human leukocyte elastase (Homo sapiens, UniProt P08246); assay: Inhibition of human leukocyte elastase (AAPVpNA substrate; Ki by Green and Work); format: biochemical; details: for Ki: method of Green and Work
T3 construct: purchased Elastin Products Corporation, Pacific, Mo., USA
T3 sequence (P08246 30-267): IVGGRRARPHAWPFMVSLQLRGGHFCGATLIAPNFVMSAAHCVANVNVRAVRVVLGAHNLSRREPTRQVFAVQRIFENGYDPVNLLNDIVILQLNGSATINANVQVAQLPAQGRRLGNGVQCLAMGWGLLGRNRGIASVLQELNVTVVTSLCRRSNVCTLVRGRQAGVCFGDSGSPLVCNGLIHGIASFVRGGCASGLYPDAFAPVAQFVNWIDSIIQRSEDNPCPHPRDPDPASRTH
Experimental: The potency of polypeptides of the present invention to act as an elastase inhibitor was determined by the ability of a compound of the invention to inhibit the action of human leukocyte elastase (HLE) on a low molecular weight peptide substrate. The potency of an inhibitor was evaluated by obtaining a kinetic determination of the dissociation constant, Ki, of the complex formed from the interaction of th inhibitor with HLE. The substrate used was the anilide methoxysuccinyl-alanyl-alanyl-prolyl-valine-p-nitroanilide as described by K. Nakajima et al. in the J. Biol. Chem., 254: 4027-4032 (1979) and by T. Teshima et al. in J. Biol Chem., 257: No 9, 5085-5091 (1982). The HLE enzyme used in these studies may be obtained from Elastin Products of St. Louis, Mo. or can be purified according to B. R. Viscarello et al. in Preparative Biochemistry, Vol. 13, pages 57-67, (1983).
The activity of human leukocyte elastase (EC 3.4.21.37) was determined according to the method of Nakajima et al (7). Inhibition of HLE was determined by the use of the synthetic peptide methoxy-succinyl-alanyl-alanyl-prolyl-valyl-p-nitro anilide (AAPVpNA, Sigma).
Sample (100 μl) and 100 μl HLE (200 ng/ml; Elastin Products Corporation, Pacific, Mo., USA) in assay buffer (0.1M, HEPES, 0.5M NaCl, 10% DMSO, pH 7.5) were incubated for 30 minutes at room temperature. Substrate (800 μl 0.5 mM) in assay buffer was then added.
Changes in absorbance at 405 nm were followed up to 1 hour and the %-inhibition was calculated from the remaining activity and controls. The dissociation constant (Ki) was determined according to the method of Green and Work (8) in the same system, using 2 mM substrate and (1 μg/ml) HLE (final concentrations).

[10] = at least threefold excess of the inhibitor
[11] = substrate 0.1 mM TGPLpNA, inhibitor 1 μg/ml, n.i. = no inhibition

AQEPVKGPVSTKPGSCPIILIRCAMLNPPNRCLKDTDCPGIKKCCEGSCGMACFVPQ (cysteine pairing not given here) [prominent inhibitor]
IC50 [1]: 9.5 nM | isoelectric point [2]: 9.7 pH | DISSOCIATION CONSTANT (Ki), human cathepsin G [3]: n.i. | acid stability [4]: acid stable | inhibition of Alpha-chymotrypsin (in words) [5, 10]: neither Alpha- chymotrypsin, nor trypsin and plasmin were significantly inhibited | DISSOCIATION CONSTANT (Ki), Alpha-chymotrypsin ([5]; substrate 0.5 mM AAPFpNA, inhibitor up to 1 μg/ml (threefold molar), n.i. = no inhibition): n.i. | inhibition of plasmin (in words) [6, 10]: neither Alpha- chymotrypsin, nor trypsin and plasmin were significantly inhibited | DISSOCIATION CONSTANT (Ki), plasmin [6, 11]: n.i. | inhibition of porcine pancreatic elastase (in words) [7]: found to inhibit | Ki ([7]; substrate 0.1 mM AAPV-AFC, method of Green and Work, read-out: DISSOCIATION CONSTANT (Ki), porcine pancreatic elastase): 1 nM | inhibition of trypsin (in words) [8, 10]: neither Alpha- chymotrypsin, nor trypsin and plasmin were significantly inhibited | DISSOCIATION CONSTANT (Ki), trypsin [8, 11]: n.i. | inhibition of HLE (in words) [9]: found to inhibit | Ki ([9]; Poly LC-HPLC peak compared with inhibitor from human skin, read-out: Ki, titrated against HLE): 0.33 nM | Ki ([9]; substrate 2 mM AAPVpNA, 1 μg/ml HLE, read-out: DISSOCIATION CONSTANT (Ki), human leukocyte elastase): 0.3 nM
